Results on three molecules are retold here after US20220119534A1 (DRAGONFLY THERAPEUTICS, published 2022).

In assay [1] the target is T1, Human CLEC12A-His (human, UniProt Q5QGZ9 65-265).
T1 construct: Recombinant soluble protein made in house (Dragonfly Tx); The hCLEC12A spot of the HuProt array is written under this molecule as well; also called hCLEC12A-His; hCLEC12A; not shown: His tag
T1 sequence: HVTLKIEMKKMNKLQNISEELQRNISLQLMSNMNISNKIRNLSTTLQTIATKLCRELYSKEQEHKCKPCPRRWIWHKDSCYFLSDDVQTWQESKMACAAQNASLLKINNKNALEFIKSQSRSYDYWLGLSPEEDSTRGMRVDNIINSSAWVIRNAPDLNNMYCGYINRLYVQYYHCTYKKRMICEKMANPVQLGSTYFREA
As to the kind of experiment: SPR Biacore 8K 37 C; TriNKET captured on anti-hFc chip, hCLEC12A-His as analyte; 1:1 fit; after 2 wks 25 C in CST pH 7.0, n=2.

The target in assay [2] is T2, mFc-hNKG2D (human, UniProt P26718 73-216).
T2 construct: extracellular domain; Made in house (Dragonfly Tx); the order of tag and ECD follows the name mFc-hNKG2D; also called mFc-tagged human NKG2D; not shown: mouse Fc tag
T2 sequence (looked up): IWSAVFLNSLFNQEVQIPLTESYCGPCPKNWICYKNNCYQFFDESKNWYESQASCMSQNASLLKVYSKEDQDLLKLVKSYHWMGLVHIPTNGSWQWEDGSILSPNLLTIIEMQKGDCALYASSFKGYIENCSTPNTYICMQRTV
As to the kind of experiment: SPR Biacore 8K 37 C; mFc-hNKG2D captured on anti-mFc chip, TriNKET as analyte; 1:1 kinetic fit; control, n=3.

Assay [3] has as its target T2, mFc-hNKG2D. As to the kind of experiment: SPR Biacore 8K 37 C; mFc-hNKG2D captured on anti-mFc chip, TriNKET as analyte; kinetics fit; average of 4.
Experimental: Association was monitored for 60 seconds, and dissociation was monitored for 60 seconds. Surfaces were regenerated between cycles with three pulses of 10 mM glycine-HCl (pH 1.7) injected for 20 seconds at 100 μL/min.
Two different fits were utilized to obtain the equilibrium affinity data: steady state affinity fit and kinetic fit.
The target of assay [4] is T2, mFc-hNKG2D. As to the kind of experiment: SPR Biacore 8K 37 C; mFc-hNKG2D captured on anti-mFc chip, TriNKET as analyte; steady state fit; after 4 wks 40 C in CST pH 7.0, n=3.
Experimental: Association was monitored for 60 seconds and dissociation was monitored for 60 seconds. Surfaces were regenerated between cycles with three pulses of 10 mM glycine-HCl, pH 1.7 injected for 20 seconds at 100 μL/min. HBS-EP+ (1×) buffer was used throughout the experiment. Data were analyzed using Biacore 8K Insight evaluation software (GE Healthcare).
Assay [5] concerns the target T3, Human CLEC12A-His (human, UniProt Q5QGZ9 65-265).
T3 construct: Recombinant soluble protein made in house; also called hCLEC12A-His; hCLEC12A; not shown: His tag
T3 sequence: T1 sequence
As to the kind of experiment: SPR, hCLEC12A (K244) WT.

Assay [6] addresses T3, Human CLEC12A-His. As to the kind of experiment: SPR; control sample (HST pH 6.0 study).
In another assay the target is T4, Human CD16b (human, UniProt O75015 17-200, limits assumed, biotinylated).
T4 construct: Bought recombinant receptor; also called hFcγRIIIb
As to the kind of experiment: SPR, steady state fit; average for AB0192.

Assay [7] addresses T5, Human CLEC12A expressed on cells (Ba/F3-hCLEC12A, PL21, HL60) (human, UniProt Q5QGZ9 1-265).
T5 sequence: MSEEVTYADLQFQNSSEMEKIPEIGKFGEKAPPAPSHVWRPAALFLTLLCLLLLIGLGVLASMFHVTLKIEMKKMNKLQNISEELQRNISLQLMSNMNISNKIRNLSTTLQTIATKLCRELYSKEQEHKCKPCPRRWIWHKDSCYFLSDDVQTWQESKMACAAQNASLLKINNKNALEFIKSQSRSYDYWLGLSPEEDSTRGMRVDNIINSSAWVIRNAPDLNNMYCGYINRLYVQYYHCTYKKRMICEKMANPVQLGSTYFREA
As to the kind of experiment: cell-based or functional assay.

In assay [8] the target is T6, Human CLEC12A-His (recombinant, K244 WT) (human, UniProt Q5QGZ9 65-265).
T6 construct: Made in house (Dragonfly Tx); also called hCLEC12A; hCLEC12A-His; not shown: His tag
T6 sequence: T1 sequence
As to the kind of experiment: SPR, untreated CLEC12A, two-state fit (ka1).

Assay [9] deals with T6, Human CLEC12A-His (recombinant, K244 WT). As to the kind of experiment: SPR, two-state fit (kd1).
Experimental: (§1) Briefly, human Fc specific antibodies were covalently immobilized at a density ˜8000-10000 resonance units (RU) on carboxy methyl dextran matrix of a CM5 biosensor chip via amine-coupling chemistry to create an anti-hFc IgG chip. […] Association was monitored for 300 seconds and dissociation was monitored for 600 seconds. Surfaces were regenerated between cycles with three pulses of 10 mM glycine-HCl, pH 1.7 injected for 20 seconds at 100 μl/min. HBS-EP+ (1×) with 0.1 mg/ml BSA was used as running buffer throughout the experiment. Experiments were performed at physiological temperature of 37° C. To obtain kinetic rate constants and overall binding affinity, double-referenced data were fit to a two-state kinetic model using Biacore 8K Insight Evaluation software (Cytiva).
A further assay addresses T7, Human CLEC12A-K244Q-His (human, UniProt Q5QGZ9 65-265).
T7 construct: also called hCLEC12A (Q244); CLEC12A (Q244); not shown: His tag
T7 chain: T1 sequence with K180Q
As to the kind of experiment: SPR, two-state fit (kd1).

The target of another assay is T8, Human CD16b (FcγRIIIb) (human, UniProt O75015 17-200, limits assumed, biotinylated).
T8 construct: Bought recombinant receptor; also called hFcγRIIIb; CD16b (FcγR3b)
As to the kind of experiment: SPR, summary of FcγR affinities (n = 3).

Assay [10] has as its target T9, Cynomolgus CD16 (FcγRIII) (cynomolgus monkey, UniProt Q8SPW2 17-208, biotinylated).
T9 construct: Bought recombinant receptor; also called cFcγRIII; Cyno FcγRIII
As to the kind of experiment: SPR, summary of FcγR affinities (n = 3).
Experimental: (§2) Human and cynomolgus CD64, high and low affinity alleles of CD16a (V158 and F158, respectively), two alleles of CD32a (H131 and R131), CD16b, CD32b and cynomolgus CD16 were captured via biotin on a primed (according to the manufacturers instruction) Biacore chip. […] Due to irreversibility of streptavidin-biotin interaction, the capture step for all receptors except FcγRI (CD64) was performed just once prior to the start of the binding experiment. hCD64 and cyno CD64 capture on the CAP chip surface was performed during each cycle in accordance with the manufacturer's instructions for the Biotin CAPture kit.
(§3) Detailed description of each individual receptor binding is presented below.

Another assay deals with T10, Cynomolgus CD64 (FcγRI) (cynomolgus monkey, UniProt A0A2K5U901 33-309, Biotinylated and captured on the CAP chip (p-1094); the biotin site is not stated.).
T10 construct: Bought recombinant receptor; also called cFcγRI; Cynomolgus FcγRI; not shown: The vendor's biotinylation and purification tag (ACRO FCA-C82E8)
As to the kind of experiment: SPR, summary of FcγR affinities (n = 3).

Assay [11] has as its target T6, Human CLEC12A-His (recombinant, K244 WT). As to the kind of experiment: SPR, two-state fit (ka1); control sample.
Experimental: as §1

Numbering of substitutions follows the chain as printed. Names may count otherwise.

T10 sequence (A0A2K5U901 entry or part of it limits assumed): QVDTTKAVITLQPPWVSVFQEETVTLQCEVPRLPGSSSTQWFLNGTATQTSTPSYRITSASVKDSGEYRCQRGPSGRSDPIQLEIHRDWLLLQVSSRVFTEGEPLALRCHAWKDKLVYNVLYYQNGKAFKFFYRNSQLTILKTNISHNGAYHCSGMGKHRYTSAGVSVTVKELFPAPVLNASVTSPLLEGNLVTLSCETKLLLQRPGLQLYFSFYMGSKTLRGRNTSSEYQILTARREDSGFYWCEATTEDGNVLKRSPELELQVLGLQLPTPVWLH
T9 sequence (Q8SPW2 17-208 limits assumed): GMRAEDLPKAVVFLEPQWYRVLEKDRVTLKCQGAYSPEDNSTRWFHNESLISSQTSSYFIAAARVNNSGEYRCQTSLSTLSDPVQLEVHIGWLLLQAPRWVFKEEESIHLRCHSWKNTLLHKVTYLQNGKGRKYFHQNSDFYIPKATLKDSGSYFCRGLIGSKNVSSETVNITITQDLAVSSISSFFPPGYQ
T8 sequence (O75015 17-200 limits assumed): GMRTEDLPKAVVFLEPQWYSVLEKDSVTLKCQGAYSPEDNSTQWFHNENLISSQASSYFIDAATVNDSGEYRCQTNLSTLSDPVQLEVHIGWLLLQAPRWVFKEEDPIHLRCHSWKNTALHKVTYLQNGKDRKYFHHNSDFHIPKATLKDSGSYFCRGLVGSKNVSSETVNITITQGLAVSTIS
T4 sequence (O75015 17-200 limits assumed): as above
Experimental for Cynomolgus CD64 (FcγRI): as §2, §3
Experimental for Human CD16b (FcγRIIIb): as §2, §3
Experimental for Human CLEC12A-K244Q-His: as §1

B1: F3'-1602 TriNKET (bispecific antibody, human IgG1, kappa)
chain: QLQLQESGPGLVKPSETLSLTCTVSGFSLTNYGLHWIRQPPGKCLEWIGVIWSGGKTDYNPSLKSRVTISKDTSKNQFSLKLSSVQAADTAVYYCAKYDYDDSLDYWGQGTLVTVSSGGGGSGGGGSGGGGSGGGGSDIQMTQSPSSLSASVGDRVTITCHASQNINFWLSWYQQKPGKAPKLLIYEASNLHTGVPSRFSGSGSGTRFTLTISSLQPEDIATYYCQQSHSYPLTFGCGTKLEIKGSDKTHTCPPCPAPELLGGPSVFLFPPKPKDTLMISRTPEVTCVVVDVSHEDPEVKFNWYVDGVEVHNAKTKPREEQYNSTYRVVSVLTVLHQDWLNGKEYKCKVSNKALPAPIEKTISKAKGQPREPRVYTLPPCRDELTKNQVSLTCLVKGFYPSDIAVEWESNGQPENNYKTTPPVLVSDGSFTLYSKLTVDKSRWQQGNVFSCSVMHEALHNHYTQKSLSLSPG
heavy: EVQLVESGGGLVKPGGSLRLSCAASGFTFSSYSMNWVRQAPGKGLEWVSSISSSSSYIYYADSVKGRFTISRDNAKNSLYLQMNSLRAEDTAVYYCARGAPIGAAAGWFDPWGQGTLVTVSSASTKGPSVFPLAPSSKSTSGGTAALGCLVKDYFPEPVTVSWNSGALTSGVHTFPAVLQSSGLYSLSSVVTVPSSSLGTQTYICNVNHKPSNTKVDKKVEPKSCDKTHTCPPCPAPELLGGPSVFLFPPKPKDTLMISRTPEVTCVVVDVSHEDPEVKFNWYVDGVEVHNAKTKPREEQYNSTYRVVSVLTVLHQDWLNGKEYKCKVSNKALPAPIEKTISKAKGQPREPQVCTLPPSRDELTENQVSLTCLVKGFYPSDIAVEWESNGQPENNYKTTPPVLDSDGSFFLYSWLTVDKSRWQQGNVFSCSVMHEALHNHYTQKSLSLSPG
light: DIQMTQSPSSVSASVGDRVTITCRASQGISSWLAWYQQKPGKAPKLLIYAASSLQSGVPSRFSGSGSGTDFTLTISSLQPEDFATYYCQQGVSFPRTFGGGTKVEIKRTVAAPSVFIFPPSDEQLKSGTASVVCLLNNFYPREAKVQWKVDNALQSGNSQESVTEQDSKDSTYSLSSTLTLSKADYEKHKVYACEVTHQGLSSPVTKSFNRGEC
notes: Trispecific F3' format: CLEC12A scFv-Fc paired with NKG2D Fab-Fc; Stressed and control samples of the stability studies are the same molecule; also called AB0237
With B1, the Kd stood at 0.93 nM in the assay with Human CLEC12A-His [1], 714 nM with mFc-hNKG2D [2], 721 nM with mFc-hNKG2D [3] and 711 nM with mFc-hNKG2D [4]. For the same molecule, the koff in the assay with Human CLEC12A-His [1] amounted to 0.000765 s⁻¹; in the assay with mFc-hNKG2D [2], 0.146 s⁻¹. For the same molecule, the kon with Human CLEC12A-His [1] was 824000 M⁻¹ s⁻¹; with mFc-hNKG2D [2] it was 206000 M⁻¹ s⁻¹.

B2: AB0192 TriNKET (other)
chain: EVQLVESGGGVVQPGGSLRLSCAASGFTFNAFGMHWVRQAPGKCLEWVAFISSGSTSIYYANTVKGRFTISRDNSKNTLYLQMNSLRAEDTAVYYCARDGYPTGGAMDYWGQGTSVTVSSGGGGSGGGGSGGGGSGGGGSDIQMTQSPSSLSASVGDRVTITCKASQDIYNYLSWFQQKPGKAPKPLIYRANILVSGVPSRFSGSGSGQDYTFTISSLQPEDIATYYCLQFDAFPFTFGCGTKLEIKGSDKTHTCPPCPAPELLGGPSVFLFPPKPKDTLMISRTPEVTCVVVDVSHEDPEVKFNWYVDGVEVHNAKTKPREEQYNSTYRVVSVLTVLHQDWLNGKEYKCKVSNKALPAPIEKTISKAKGQPREPRVYTLPPCRDELTKNQVSLTCLVKGFYPSDIAVEWESNGQPENNYKTTPPVLVSDGSFTLYSKLTVDKSRWQQGNVFSCSVMHEALHNHYTQKSLSLSPG
heavy: B1 heavy
light: B1 light
notes: the condition stands under assay; also called AB0192 Lot AB0192-005
In the case of B2, in the assay with Human CLEC12A-His [5], the affinity, expressed as Kd, was 1.65 nM; the koff worked out at 0.00115 s⁻¹; the kon was found to be 698000 M⁻¹ s⁻¹. In the assay with Human CLEC12A-His [6], this molecule yielded a Kd of 1.81 nM, a koff of 0.0014 s⁻¹ and a kon of 776000 M⁻¹ s⁻¹. In the assay with Human CD16b, this molecule came in with a Kd of 6000 nM.

B3: AB0089 TriNKET (bispecific antibody, human IgG1, kappa)
chain: B1 chain with S53V, K56A, K71V, Y98G, D101G, S103T, R207D, I220F
heavy: B1 heavy
light: B1 light
notes: F3' format heterodimer of three chains; human IgG1 Fc with EW-RVT and Y349C/S354C mutations; also called AB0089 Lot AB0089-002; CLEC12A TriNKET AB0089
Regarding B3, the “EC50, KHYG-1-CD16aV cytotoxicity assay, HL-60 cells; after low pH hold” value in assay [7] is 0.11 nM. In addition, the “EC50, KHYG-1-CD16aV cytotoxicity assay, HL-60 cells; control sample” value in assay [7] worked out at 0.11 nM. Further, the kon amounted to 1.63e+07 M⁻¹ s⁻¹ in [8] and 1.04e+07 M⁻¹ s⁻¹ in assay [11]. Besides, the koff turned out to be 0.0398 s⁻¹ in assay [9] and 0.00353 s⁻¹ with Human CLEC12A-K244Q-His. In addition, the Kd with Human CD16b (FcγRIIIb) came to 8850 nM; in [10] it was 349 nM; with Cynomolgus CD64 (FcγRI), 1.5 nM.
